# Measurements: patent US8344120B2, “Nucleic acid molecules encoding rage fusion proteins” (TransTech Pharma, Inc., priority 2006, dated 2013)
# Several values for one entry are separate records, joined by “and”; a condition that tells them apart may be missing. Identical values can stand only once. Like-named read-outs stand apart in the source and are kept apart here.
# T1: S100b (S100) (Homo sapiens, UniProt P04271)
# T1 sequence (P04271 1-92): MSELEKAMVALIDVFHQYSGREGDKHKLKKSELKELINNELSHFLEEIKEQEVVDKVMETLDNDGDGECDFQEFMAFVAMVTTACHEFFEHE
# T2: amphoterin (Ampho) (Homo sapiens, UniProt P09429)
# T2 sequence (P09429 1-215): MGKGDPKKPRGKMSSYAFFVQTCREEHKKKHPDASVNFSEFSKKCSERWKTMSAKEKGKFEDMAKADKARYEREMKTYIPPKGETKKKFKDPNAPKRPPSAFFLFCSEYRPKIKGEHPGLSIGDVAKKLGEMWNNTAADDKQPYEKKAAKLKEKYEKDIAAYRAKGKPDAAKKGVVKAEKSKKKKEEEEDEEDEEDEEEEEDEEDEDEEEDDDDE
# Legend:
# [1] = cited from earlier work
# [2] = normal and diabetic rats; cited from earlier work
# amyloid-beta (Abeta) = target: T3, amyloid-beta (Abeta) (Homo sapiens, UniProt P05067); assay: In vitro ligand binding ELISA, immobilized amyloid-beta; conditions: ligand 5 micrograms per well; fusion protein at increasing dilutions, 37° C. one hour
# T3 construct: Amyloid Beta (1-40) from Biosource; purchased Biosource
# T3 sequence (P05067 672-711 limits assumed): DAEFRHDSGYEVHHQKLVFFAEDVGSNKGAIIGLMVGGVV
# Experimental: (§1) For example, the RAGE fusion protein may be used in a binding assay to identify potential RAGE ligands. In one example embodiment of such a binding assay, a known RAGE ligand may coated onto a solid substrate (e.g., Maxisorb plates) at a concentration of about 5 micrograms per well, where each well contains a total volume of about 100 microliters (4). The plates may be incubated at 4° C. overnight to allow the ligand to absorb or bind to the substrate. Alternatively, shorter incubation periods at higher temperature (e.g., room temperature) may be used. […] The RAGE fusion protein bound to the immobilized ligand may be detected in a variety of ways. […] The bound complex may be detected by adding the alkaline phosphatase substrate, para-nitrophenylphosphate (PNPP), and measuring conversion of PNPP to para-nitrophenol (PNP) as an increase in absorbance at 405 nm. […] In the absence of ligand (i.e., coating with only BSA) there was no increase in absorbance. […] Binding was detected by the addition of an immunodetection complex containing a monoclonal mouse anti-human IgG1 diluted 1:11,000 to a final assay concentration (FAC) of 21 ng/100 μL, a biotinylated goat anti-mouse IgG diluted 1:500, to a FAC of […], and an avidin-linked alkaline phosphatase. […]
# S100b (S100) = target: T1, S100b (S100); assay: In vitro ligand binding ELISA, immobilized S100b; conditions: ligand 5 micrograms per well; fusion protein at increasing dilutions, 37° C. one hour
# Experimental: as §1
# amphoterin (Ampho) = target: T2, amphoterin (Ampho); assay: In vitro ligand binding ELISA, immobilized amphoterin; conditions: ligand 5 micrograms per well; fusion protein at increasing dilutions, 37° C. one hour
# Experimental: as §1
# [3] = tested on: recurrent diabetes in syngeneic NOD transplant model; assay: Syngeneic islet transplantation in NOD mice; format: in vivo
# Description: Spontaneous autoimmune non-obese diabetic mice (NOD/LtJ) (12-25 weeks old) served as recipients for islet cells, while young pre-diabetic NOD/LtJ mice (6-7 weeks old) served as donors in syngeneic islet transplantation. Islets for transplantation were isolated as described above in Section A (Allogeneic Islet Transplantation). Diabetic NOD/LtJ mice received islet grafts within 2 days of the diagnosis of diabetes. 500-600 freshly isolated islets (approximately 550 islet equivalents) from donor mice were picked up with an infusion set and transplanted into the subcapular space of the right kidney. Test compounds were administered as soon as the islets were transplanted and continued for approximately 8 weeks. […] Islet graft function was monitored by serial blood glucose measurements daily for the first 2 weeks after islet transplantation, followed by every other day thereafter. Reversal of diabetes was defined as blood glucose less than 200 mg/dl on two consecutive measurements. Percentage graft loss was determined when blood glucose exceeded 250 mg/dl on two consecutive measurements.
# mouse model of AD = assay: APP transgenic mouse model of AD; format: in vivo, mice; conditions: treated for 3 months, qod i.p.; versus vehicle and human IgG1
# Experimental: Experiments were performed to evaluate whether TTP-4000 could affect amyloid formation and cognitive dysfunction in a mouse model of AD. The experiments utilized transgenic mice expressing the human Swedish mutant amyloid precursor protein (APP) under the control of the PDGF-B chain promoter. Over time, these mice generate high levels of the RAGE ligand, amyloid beta (Aβ).
# The APP mice (male) used in this experiment were designed by microinjection of the human APP gene (with the Swedish and London mutations) into mouse eggs under the control of the platelet-derived growth factor B (PDGF-B) chain gene promoter. The mice were generated on a C57BL/6 background and were developed by Molecular Therapeutics Inc. Animals were fed ad libitum and maintained by brother sister mating. The mice generated from this construct develop amyloid deposits starting at 6 months of age. Animals were aged for 6 months and then maintained for 90 days and sacrificed for amyloid quantification.
# APP transgenic mice were administered vehicle or TTP4000 every other day [qod (i.p.)] for 90 days starting at 6 months of age. At the end of the experiment, animals were sacrificed and examined for Aβ plaque burden in the brain (i.e., plaque number). A 6-month control APP group was used to determine the baseline of amyloid deposits. In addition, at the end of the study, the animals were subjected to behavioral (Morris water maze) analysis. The investigators were blinded to the study compounds. Samples were given to the mice at 0.25 ml/mouse/every other day.
# For histological examination, the animals were anesthetized with an intraperitoneal injection (IP) of sodium pentobarbital (50 mg/kg). The animals were transcardially perfused with 4° C., phosphate-buffered saline (PBS) followed by 4% paraformaldehyde. The brains were removed and placed in 4% paraformaldehyde over night. The brains were processed to paraffin and embedded. Ten serial 30-μm thick sections through the brain were obtained. Sections were subjected to primary antibody overnight at 4° C. (Aβ peptide antibody) in order to detect the amyloid deposits in the brain of the transgenic animals (Guo et al., J. Neurosci., 22:5900-5909 (2002)). Sections were washed in Tris-buffered saline (TBS) and secondary antibody was added and incubated for 1 hour at room temperature. After washing, the sections were incubated as instructed in the Vector ABC Elite kit (Vector Laboratories) and stained with […] (DAB). The reactions were stopped in water and cover-slipped after treatment with xylene. The amyloid area in each section was determined with a computer-assisted image analysis system, consisting of a Power Macintosh computer equipped with a Quick Capture frame grabber card, Hitachi CCD camera mounted on an Olympus microscope and camera stand. NIH Image Analysis Software, v. 1.55 was used. The images were captured and the total area of amyloid was determined over the ten sections. A single operator blinded to treatment status performed all measurements. Summing the amyloid volumes of the sections and dividing by the total number of sections was done to calculate the amyloid volume.
# For quantitative analysis, an enzyme-linked immunosorbent assay (ELISA) was used to measure the levels of human total Aβ, Aβtotal and Aβ1-42 in the brains of APP transgenic mice (Biosource International, Camarillo, Calif.). Aβtotal and Aβ1-42 were extracted from mouse brains by guanidine hydrochloride and quantified as described by the manufacturer. […]
# [4] = 300 ug LD + 100 ug qod ip, syngeneic islets in NOD mice
molecule,measurement,setting,value
"human sRAGE: human soluble RAGE (V, C1 and C2 domains)",half-life,[1]; assessed by retention of immunoreactivity sRAGE,less than 2 hours
same,half-life in plasma,[1],about 2 hours
sRAGE: soluble RAGE: the RAGE protein that does not include the transmembrane region or the cytoplasmic tail; species not stated at the place [reference compound],half-life in plasma,[1],only a few hours
"rodent sRAGE: rodent soluble RAGE (protein, UniProt Q62151 23-340, looked up, extracellular domain, rodent soluble RAGE) extracellular domain: GQNITARIGEPLVLSCKGAPKKPPQQLEWKLNTGRTEAWKVLSPQGGPWDSVARILPNGSLLLPATGIVDEGTFRCRATNRRGKEVKSNYRVRVYQIPGKPEIVDPASELTASVPNKVGTCVSEGSYPAGTLSWHLDGKLLIPDGKETLVKEETRRHPETGLFTLRSELTVIPTQGGTHPTFSCSFSLGLPRRRPLNTAPIQLRVREPGPPEGIQLLVEPEGGIVAPGGTVTLTCAISAQPPPQVHWIKDGAPLPLAPSPVLLLPEVGHEDEGTYSCVATHPSHGPQESPPVSIRVTETGDEGPAEGSVGESGLGTLA",half-life,[2],approximately 20 hours
"TTP-3000: three domain RAGE fusion protein: human RAGE N-terminal sequence (to position 136) linked to human IgG Fc (γ1) without hinge; SEQ ID NO: 35-37, 57 (protein, non-natural residues) QNITARIGEPLVLKCKGAPKKPPQRLEWKLNTGRTEAWKVLSPQGGGPWDSVARVLPNGSLFLPAVGIQDEGIFRCQAMNRNGKETKSNYRVRVYQIPGKPEIVDSASELTAGPSVFLFPPKPKDTLMISRTPEVTCVVVDVSHEDPEVKFNWYVDGVEVHNAKTKPREEQYNSTYRVVSVLTVLHQDWLNGKEYKCKVSNKALPAPIEKTISKAKGQPREPQVYTLPPSRDELTKNQVSLTCLVKGFYPSDIAVEWESNGQPENNYKTTPPVLDSDGSFFLYSKLTVDKSRWQQGNVFSCSVMHEALHNHYTQKSLSLSPGK",binding to immobilized amyloid-beta (increase in absorbance at 405 nm),amyloid-beta (Abeta),specifically interact
same,binding to immobilized S100b (increase in absorbance at 405 nm),S100b (S100),specifically interact
same,binding to immobilized amphoterin (increase in absorbance at 405 nm),amphoterin (Ampho),specifically interact
same,day of graft loss for each animal,[3]; [4],42 days and 41 days and 34 days and 32 days and 30 days and 44 days and 46 days
same,"day of graft loss, Mean",[3]; [4],38.43 days
same,"time before detection of graft failure, in words",[3]; versus animals not treated at all,increase in the time before detection of graft failure
"mouse sRAGE: mouse soluble RAGE used as comparator in the AD mouse model (protein, UniProt Q62151 23-340, looked up, extracellular domain, mouse soluble RAGE used as comparator in the AD mouse model) extracellular domain: GQNITARIGEPLVLSCKGAPKKPPQQLEWKLNTGRTEAWKVLSPQGGPWDSVARILPNGSLLLPATGIVDEGTFRCRATNRRGKEVKSNYRVRVYQIPGKPEIVDPASELTASVPNKVGTCVSEGSYPAGTLSWHLDGKLLIPDGKETLVKEETRRHPETGLFTLRSELTVIPTQGGTHPTFSCSFSLGLPRRRPLNTAPIQLRVREPGPPEGIQLLVEPEGGIVAPGGTVTLTCAISAQPPPQVHWIKDGAPLPLAPSPVLLLPEVGHEDEGTYSCVATHPSHGPQESPPVSIRVTETGDEGPAEGSVGESGLGTLA",Aβ plaques in the brain,mouse model of AD,fewer Aβ plaques
same,cognitive dysfunction (Morris water maze),mouse model of AD,less cognitive dysfunction
